From US20110294144

Test system: recombinant tau protein (Wako Pure Chemical Industries, Ltd.)

recombinant PRKX protein (Invitrogen)
S214 phosphorylation of tau, in vitro kinase reaction of the two recombinant proteins, Western blot: the amount of S214 phosphorylation was enhanced by the addition of ATP as compared to the control without addition of ATP
